In the assay the target is T1, Chlamydomonas IFT172 (intraflagellar transport protein 172), recombinant full-length, C-terminal His-tag (Chlamydomonas reinhardtii, UniProt Q5DM57 1-1755).
T1 construct: Gene synthesised or sub-cloned into MCS2 of the pFL vector; no removal of the His-tag is described; The detergent-free monomer was used in the liposome sedimentation assays; also called IFT172-His tag; IFT172 monomer; source: HighFive insect cells (baculovirus), purified (His60 Ni Resin, SEC on Superose 6; with 0.1% DDM for the monomer, or with HiTrapQ-Sepharose anion exchange for the …)
Put plainly: co-sedimentation; liposome co-sedimentation: IFT172 with Folch fraction I MLV and rising amounts of IFT57; 20 mM Hepes, 150 mM NaCl, pH 7.5, 15 min on ice, 135,000 xg for 20 min, supernatant and pellet by SDS-PAGE; binding of IFT57 to IFT172 is read from the loss of IFT172 from the liposome pellet. The following applies: both partners purified.

T1 sequence (Q5DM57 whole entry): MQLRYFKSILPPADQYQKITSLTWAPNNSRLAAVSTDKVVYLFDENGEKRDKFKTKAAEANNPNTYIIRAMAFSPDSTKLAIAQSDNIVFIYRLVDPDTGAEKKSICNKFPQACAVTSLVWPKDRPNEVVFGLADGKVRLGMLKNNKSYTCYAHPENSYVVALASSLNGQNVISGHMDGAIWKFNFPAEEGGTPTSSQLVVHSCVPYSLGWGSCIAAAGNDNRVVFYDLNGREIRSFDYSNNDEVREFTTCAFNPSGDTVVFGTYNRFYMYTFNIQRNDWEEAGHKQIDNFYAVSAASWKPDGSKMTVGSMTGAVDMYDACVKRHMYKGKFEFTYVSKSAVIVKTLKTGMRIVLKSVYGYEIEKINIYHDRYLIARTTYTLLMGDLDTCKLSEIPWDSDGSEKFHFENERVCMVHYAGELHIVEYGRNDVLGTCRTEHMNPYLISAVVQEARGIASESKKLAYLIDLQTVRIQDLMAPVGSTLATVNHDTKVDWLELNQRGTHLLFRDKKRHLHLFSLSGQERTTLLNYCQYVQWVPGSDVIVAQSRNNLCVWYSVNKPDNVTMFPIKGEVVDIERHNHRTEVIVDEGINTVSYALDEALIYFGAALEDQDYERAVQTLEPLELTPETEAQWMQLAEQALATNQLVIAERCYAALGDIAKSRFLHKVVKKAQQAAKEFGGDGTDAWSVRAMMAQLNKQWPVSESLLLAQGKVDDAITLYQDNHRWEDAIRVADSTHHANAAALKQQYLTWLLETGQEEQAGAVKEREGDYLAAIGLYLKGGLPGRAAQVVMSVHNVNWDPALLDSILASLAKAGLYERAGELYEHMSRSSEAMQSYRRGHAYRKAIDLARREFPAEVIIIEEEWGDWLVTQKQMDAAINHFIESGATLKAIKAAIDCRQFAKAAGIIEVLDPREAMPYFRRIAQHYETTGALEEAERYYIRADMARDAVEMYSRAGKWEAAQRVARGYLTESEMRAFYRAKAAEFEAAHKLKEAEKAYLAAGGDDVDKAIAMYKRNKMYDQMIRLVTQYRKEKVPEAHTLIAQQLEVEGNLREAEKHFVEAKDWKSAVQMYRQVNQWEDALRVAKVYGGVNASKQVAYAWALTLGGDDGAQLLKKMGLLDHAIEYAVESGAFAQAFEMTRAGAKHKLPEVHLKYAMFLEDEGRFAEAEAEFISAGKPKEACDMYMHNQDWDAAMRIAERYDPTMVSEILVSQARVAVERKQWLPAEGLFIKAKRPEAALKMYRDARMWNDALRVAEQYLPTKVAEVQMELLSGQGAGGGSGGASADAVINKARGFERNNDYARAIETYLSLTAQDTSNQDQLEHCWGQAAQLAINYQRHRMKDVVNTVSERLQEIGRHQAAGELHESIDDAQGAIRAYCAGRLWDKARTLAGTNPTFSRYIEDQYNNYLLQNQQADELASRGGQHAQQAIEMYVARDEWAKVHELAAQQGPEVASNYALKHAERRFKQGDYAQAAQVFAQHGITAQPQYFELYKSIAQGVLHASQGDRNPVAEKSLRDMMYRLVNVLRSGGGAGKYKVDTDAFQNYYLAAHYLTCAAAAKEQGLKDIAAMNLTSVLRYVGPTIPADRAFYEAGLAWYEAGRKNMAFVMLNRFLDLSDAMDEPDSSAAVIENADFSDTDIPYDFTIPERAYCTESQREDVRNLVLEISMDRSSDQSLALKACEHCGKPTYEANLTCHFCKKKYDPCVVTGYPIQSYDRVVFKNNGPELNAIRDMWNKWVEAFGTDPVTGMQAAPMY

B1: Chlamydomonas IFT57 (intraflagellar transport protein 57), full-length (natural protein, UniProt Q2XQY7 1-469, looked up)
chain: MSSKRGGRSSLAKAPEEAVNGEAFAPEASPPPPGDDGDAGGEDGGAPAPPPPPATKGGPVAVGRSLEIQTTPDVCMEMLADKLKLLNYEADFCRKKKPYRKPLSRLYFAVPLANSSEQFFYFTSLATWLLGLAGVELPAPKEFDDPNLTCQNILGAVKKLGFAPPSYHPTKLTVGNGKEVVGVLDGLVDFVLERRHHKYSRPAYGNDGQPEEGVQLDDEAEAAAMEGADELAMPAQNQADDDEEEEGVYVDPGRGDAAGPGTGASAAMDAEKAVLVSKVDPTLWKIELERVAPKLRITIAADSKDWRSHLDEAHQHKEVISKAWPDSKTSLERLRADLNGTLEKLQTREKFLNEQFESLMQQYRAARTTFTDVQETYNRKTEAVADRNQEMHRIGETLEEVKAMMDEKGSNIADATPVARIKTAIKQLNKELHDMEVRIGVVSHTLLQLSLRNKRLLQAQAALSDEEED
notes: IFT57 from Chlamydomonas, full length, cloned into the pEC vector; source: E. coli BL21 (DE3), purified (Ni-NTA, TEV cleavage, HiTrapQ-Sepharose, SEC); not shown: His tag, N-terminal, cleaved
As for B1, the binding result is recorded as “binds”.
